Data as given in patent publication US9200040B2, “Specific binding agents of human angiopoietin-2” (Amgen Inc., priority 2001, dated 2015).
Entries after “also recorded” stand apart in the source; their conditions may differ. Where two headings read alike, the source gives them in different places. Primed or numbered codes have the meaning given here. Where no end group is shown, it is not given here. [ ]: non-standard residue; d: D form. Fc(5) = non-antigen-binding fragment of an antibody (vehicle) fused to the peptide

How the values were obtained:
mAng-2 = target: T1, mAng-2 (Mus musculus, UniProt O35608); experiment: Affinity BIAcore (Example 2); type: binding, murine; settings: Table 6
T1 construct: made in house
T1 sequence (O35608 19-496): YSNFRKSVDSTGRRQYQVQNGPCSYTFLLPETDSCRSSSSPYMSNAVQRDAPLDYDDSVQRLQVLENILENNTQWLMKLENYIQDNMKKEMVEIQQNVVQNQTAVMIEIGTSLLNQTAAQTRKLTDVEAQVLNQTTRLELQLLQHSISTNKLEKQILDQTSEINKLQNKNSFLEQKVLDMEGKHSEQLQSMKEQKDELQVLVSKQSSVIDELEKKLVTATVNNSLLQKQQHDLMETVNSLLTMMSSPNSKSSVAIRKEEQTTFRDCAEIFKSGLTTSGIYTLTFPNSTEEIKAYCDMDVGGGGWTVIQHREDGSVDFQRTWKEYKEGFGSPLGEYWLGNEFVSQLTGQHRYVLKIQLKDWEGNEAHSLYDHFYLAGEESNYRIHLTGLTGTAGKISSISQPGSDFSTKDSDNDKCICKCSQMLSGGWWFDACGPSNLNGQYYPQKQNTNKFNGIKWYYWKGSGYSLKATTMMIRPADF
Protocol: (§1) Binding assays were carried out by first capturing about 100 Ru of each candidate anti-Ang-2 peptibody to the immobilized Protein G, after which various concentrations (0-100 nM) of huAng-2 or mAng-2 were injected over the bound antibody surface at a flow rate of 50 μl/min for 3 minutes. Peptibody binding kinetic parameters including ka (association rate constant), kd (dissociation rate constant) and KD (dissociation equilibrium constant) were determined using the BIA evaluation 3.1 computer program (Biacore, Inc.). Lower dissociation equilibrium constants indicated greater affinity of the peptibody for Ang-2.

hAng-1 [1] = target: T2, hAng-1 (Homo sapiens, UniProt Q15389); experiment: Affinity ELISA; type: binding; settings: Table 5
T2 sequence (Q15389 16-498): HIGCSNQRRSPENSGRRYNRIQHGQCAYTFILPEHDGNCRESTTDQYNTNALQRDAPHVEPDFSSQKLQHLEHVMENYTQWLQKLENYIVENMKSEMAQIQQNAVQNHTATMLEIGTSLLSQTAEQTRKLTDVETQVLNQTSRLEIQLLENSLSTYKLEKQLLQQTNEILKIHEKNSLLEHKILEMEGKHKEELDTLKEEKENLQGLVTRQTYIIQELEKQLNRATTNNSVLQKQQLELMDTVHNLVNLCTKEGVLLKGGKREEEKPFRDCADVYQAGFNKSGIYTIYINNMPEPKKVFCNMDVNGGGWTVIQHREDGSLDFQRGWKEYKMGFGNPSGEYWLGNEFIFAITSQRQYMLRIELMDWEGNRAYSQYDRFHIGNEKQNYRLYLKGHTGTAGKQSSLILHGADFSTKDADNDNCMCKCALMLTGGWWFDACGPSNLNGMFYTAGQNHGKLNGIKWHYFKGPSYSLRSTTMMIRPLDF

hAng-2 = target: T3, hAng-2 (Homo sapiens, UniProt O15123); experiment: Affinity BIAcore (Example 2); type: binding; settings: Table 6
T3 construct: conditioned media of human 293T cells transfected with full length human Ang-2 DNA; made in house; host or cells: conditioned media
T3 sequence (O15123 19-496): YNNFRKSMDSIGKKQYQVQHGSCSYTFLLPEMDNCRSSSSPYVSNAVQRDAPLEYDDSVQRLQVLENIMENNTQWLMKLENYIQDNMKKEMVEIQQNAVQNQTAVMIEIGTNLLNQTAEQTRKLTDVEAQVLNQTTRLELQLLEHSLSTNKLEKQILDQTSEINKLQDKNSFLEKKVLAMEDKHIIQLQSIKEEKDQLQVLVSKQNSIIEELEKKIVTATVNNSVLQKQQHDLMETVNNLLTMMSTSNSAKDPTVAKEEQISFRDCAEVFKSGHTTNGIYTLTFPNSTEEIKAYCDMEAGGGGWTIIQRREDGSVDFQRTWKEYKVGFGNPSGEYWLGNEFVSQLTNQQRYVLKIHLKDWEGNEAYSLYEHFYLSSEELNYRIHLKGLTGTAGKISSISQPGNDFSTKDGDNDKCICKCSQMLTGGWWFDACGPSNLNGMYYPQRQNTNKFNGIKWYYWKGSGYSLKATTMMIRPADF
Protocol: as §1

hAng-1 [2] = target: T2, hAng-1; experiment: Neutralization ELISA (Example 2); type: binding; settings: Table 5; about 1 nM Tie-2-Fc
huAng2 = target: T4, huAng2 (Homo sapiens, UniProt O15123); experiment: BIAcore binding to huAng2 (Example 9); settings: Table 8
T4 construct: purchased R&D Systems BNO12103A
T4 sequence (O15123 68-496 limits assumed): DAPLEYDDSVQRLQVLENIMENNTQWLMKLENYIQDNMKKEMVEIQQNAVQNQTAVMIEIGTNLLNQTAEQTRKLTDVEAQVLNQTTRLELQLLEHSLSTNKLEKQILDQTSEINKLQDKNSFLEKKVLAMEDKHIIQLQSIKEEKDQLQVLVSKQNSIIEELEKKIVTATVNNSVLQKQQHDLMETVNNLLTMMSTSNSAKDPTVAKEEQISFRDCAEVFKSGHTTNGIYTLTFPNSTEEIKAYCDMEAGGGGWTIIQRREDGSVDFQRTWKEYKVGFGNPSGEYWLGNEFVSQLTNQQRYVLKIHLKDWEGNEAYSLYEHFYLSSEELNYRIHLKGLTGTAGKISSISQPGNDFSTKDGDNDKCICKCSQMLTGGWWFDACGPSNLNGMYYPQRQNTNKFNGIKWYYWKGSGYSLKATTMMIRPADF
Protocol: Six samples of anti-Ang2 peptibodies were tested for their binding activity to huAng2 (R&D Systems, BNO12103A) on BIAcore. Protein G was immobilized to a CM5 chip according to the standard amine-coupling protocol (BIAcore Inc.), and the peptibodies were then injected over a protein G surface for capturing (RL˜100 Ru). To test binding between hAng2 and the captured peptibody, 0.3 nM to 40 nM of huAng2 was injected over the captured peptibody surfaces, and binding sensorgrams were analyzed using BIAevaluation 3.0 (BIAcore Inc.).

A431 tumor = settings: p<0.0001
Protocol: The doses of peptibody used were 1000, 200, 40 and 8 ug/mouse/day. A total of 20 doses was given to all animals. Tumor volumes and body weights were recorded three times/week. At the end of the study, animals were sacrificed, and their sera were collected for measuring peptibody levels by ELISA. Tumors and a panel of normal tissues were collected from all groups.
Female nude mice were injected subcutaneously with 1×10^7 A431 cells on study day 0.

[3] = system: VEGF-induced angiogenesis; experiment: Corneal angiogenesis model; type: in vivo
Protocol: Ang-2 peptibody CON4(C) was evaluated in the corneal model of angiogenesis in rats. Angiogenesis was induced by implanting a VEGF- (or BSA control) soaked nylon disc into the corneal stroma (n=8/group). Peptibody TN8CON4-C was administered by sub-cutaneous injection at 1.0 or 0.1 mg/rat/day for seven days. Two other groups of animals were treated with the same dose of negative control peptibody 4883. All groups were pre-treated with a single loading dose of either 3.0 or 0.3 mg that was three times the maintenance dose of 1.0 or 0.1 mg (see figure). After seven days of treatment, two vascular endpoints were determined from each digital image of the rat cornea: the number of vessels intersecting the mid-point between the disc and the limbus, and the blood vessel area.

Colo-205 tumor = system: Colo-205 tumor
Protocol: Female nude mice were injected subcutaneously with 2×10^6 Colo-205 cells plus Matrigel (2:1) on study day 0. At day 3, the Ang-2 peptibodies L1-7-N, L1-21-N, Con4-C, and 2×Con4-C were administered subcutaneously at the dose of […], twice a week.
Female nude mice were injected subcutaneously with 2×10^6 Colo-205 cells plus Matrigel (2:1) on study day 0.
Female nude mice were injected subcutaneously with 2×10^6 Colo-205 cells plus Matrigel (2:1) on study day 0. At day 3, Ang-2 peptibody 2×Con4-C or control peptibody were administered subcutaneously at the dose of 350 μg/day. Tumors from groups treated with control peptibody (as described in Table 5) were harvested either at Day 14 (size-matched control) or Day 18 (time-matched control). Tumors from 2×Con4(C) treated group were then harvested at Day 18. Tumor volumes were recorded at regular intervals, as shown.
Female nude mice were injected subcutaneously with 2×10^6 Colo-205 cells plus Matrigel (2:1) on study day 0. Treatment with 350 μg/mouse, s.c. twice a week, of the Ang-2 peptibody 2×Con4-C, or equivalent control peptibody started either at study day 3, 10 or 15. […] The results are set forth in FIG. 8 (body weights not shown).
Female nude mice were injected subcutaneously with 2×10^6 Colo-205 cells plus Matrigel (2:1) on study day 0. At study day 14, treatments were started with a) 350 μg/mouse, s.c. twice a week, of the Ang-2 peptibody 2×Con4-C, b) 20 mg/kg qwx3 i.p. of taxotere, or c) a combination of both.
Female nude mice were injected subcutaneously with 2×10^6 Colo-205 cells plus Matrigel (2:1) on study day 0. At study day 14 started treatments with a) 350 μg/mouse, s.c. twice a week, of the Ang-2 peptibody 2×Con4-C, b) 50 mg/kg qdx5 i.p. of 5-FU, or c) a combination of both.

With “MGAQQEECEWDPWTCEHMLEGGGGG-Fc (MGAQQEECEWDPWTCEHMLEGGGGG-{Fc(5)}; not fully specified (bridges); printed as MGAQQEECEWDPWTCEHMLEGGGGG-Fc; cysteine pairing not given here) [Con4 (N)]” as the molecule, how does the mAng-2 ka (mAng-2) read?
Its mAng-2 ka is 730000 M⁻¹ s⁻¹.

What about the mAng-2 kd (mAng-2) of the same molecule?
Its mAng-2 kd is 0.00044 s⁻¹.

What about the “hAng-1 EC 50” value (hAng-1 [1]) of the same molecule?
Its value is “No”.

And the hAng-2 ka (hAng-2)?
Its hAng-2 ka is 330000 M⁻¹ s⁻¹.

What about the hAng-2 kd (hAng-2) of the same molecule?
The hAng-2 kd was 0.00022 s⁻¹.

What about the “hAng-1 IC 50” value (hAng-1 [2]) of the same molecule?
The value was “No In-”.

“M-Fc-GGGGGAQQEECEWDPWTCEHMLE (M[Fc]GGGGGAQQEECEWDPWTCEHMLE; cysteine pairing not given here) [Con4 (C)]” was tested. Which ka (huAng2) did it give?
Its ka is 530000 M⁻¹ s⁻¹.

And the kd (huAng2)?
Its kd is 0.0002 s⁻¹.

What about the “tumor growth vs. vehicle control” value (A431 tumor; s.c. once per day, 1000, 200, 40 and 8 ug/mouse/day, 20 doses) of the same molecule?
The value was “inhibited tumor growth”.

What about the “overt toxicity based on body weights” value ([3]; 1.0 or 0.1 mg/rat/day s.c. for seven days) of the same molecule?
The value was “no evidence of overt toxicity”.

And the “VEGF-induced angiogenesis (number of vessels, blood vessel area)” value ([3]; s.c. 1.0 or 0.1 mg/rat/day for seven days after loading dose 3.0 or 0.3 mg, p<0.04)?
Its value is “significantly inhibited VEGF-induced angiogenesis in a dose-dependent manner”.

B1: M-Fc-GGGGGAQQEECEWDPWTCEHMGSGSATGGSGSTASSGSGSATHQEECEWDPWTCEHMLE (protein)
chain: M[Fc]GGGGGAQQEECEWDPWTCEHMGSGSATGGSGSTASSGSGSATHQEECEWDPWTCEHMLE
Which results are given for B1?
ka (huAng2): 480000 M⁻¹ s⁻¹; kd (huAng2): 0.00016 s⁻¹; body weights (Colo-205 tumor; Example 15): no significant effect on body weights; tumor growth vs. vehicle control and control peptibody (Colo-205 tumor; Example 15: s.c. 14, 2.8 and 0.56 μg/mouse twice a week, p=0.003 intermediate dose, p<0.0001 high dose): Significant differences in tumor growth were observed between the two higher doses; body weight (Colo-205 tumor; Example 16): no significant effect on body weight; tumor growth vs. time-matched control group (Colo-205 tumor; Example 16: s.c. 350 μg/day from day 3, harvested Day 18, p=0.0154): Significant differences in tumor growth; body weights (Colo-205 tumor; Example 17): no significant effect on body weights; tumor growth vs. vehicle control (Colo-205 tumor; Example 17: 350 μg/mouse s.c. twice a week started at study day 3, 10 or 15, p=0.089 day 15 group, p<0.0001 day 3 and 10 groups, listed as 2×Con4-C): capable of inhibiting Colo205 tumor growth irrespective of when dosing begins; also recorded: Significant differences in tumor growth; body weights (Colo-205 tumor; Example 19a): no significant effect on body weights; tumor growth vs. vehicle control (Colo-205 tumor; Example 19a, from study day 14: 2×Con4-C 350 μg/mouse s.c. twice a week, taxotere 20 mg/kg qwx3 i.p., or both, p<0.0001): Significant differences in tumor growth; tumor growth vs. vehicle control (Colo-205 tumor; Example 19b, from study day 14: 2×Con4-C 350 μg/mouse s.c. twice a week, 5-FU 50 mg/kg qdx5 i.p., or both, p<0.0001): Significant differences in tumor growth; tumor growth vs. vehicle control and control peptibody (A431 tumor; 200 μg/mouse/day s.c. from day 3): Significant differences in tumor growth
